Measured values from the supplement of paper PMC12764529.
± gives the half width of the 95% confidence interval.

Experiments:
[1] = folding stability dG unfold (combined trypsin and chymotrypsin); higher = more stable
Summary of the method: (§1)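 K50 was inferred by Bayesian fitting of sequencing counts obtained after protease digestion of designed mini-proteins. Unfolding free energy was derived by comparison with a sequence-predicted unfolded-state K50 and a shared folded-state K50, for each protease or both combined. The mini-proteins were under 80 residues, had no cysteine, were carried in a PA-tagged cDNA display construct, and were kept only if AlphaFold2 dimer inter-PAE exceeded 15.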

[2] = folding stability dG unfold from chymotrypsin proteolysis; higher = more stable
Summary of the method: as §1

[3] = folding stability dG unfold from trypsin proteolysis; higher = more stable
Summary of the method: as §1

| Sequence | folding stability dG unfold [1] [kJ/mol] | folding stability dG unfold [2] [kJ/mol] | folding stability dG unfold [3] [kJ/mol] |
| --- | --- | --- | --- |
| SAGMEKKTFTFPTRTVLVVRGPDGTVLVVVDDPDGDPEVLTPDGTPVPYVDLPNGQRLYRFPAALFEKVSAG [r5_457_TrMRF] | 12 ± 0.264 | 13.31 ± 0.0962 | 8.8 ± 0.146 |
| SAGMEVEYTLTFELPGGLALRVTAKVRFNPETNELEVLELKVELLPLPPAPPPFISPEEAEKNGLLPEESAG [r5_393_TrMRF] | 18.8 ± 1.46 | 18.6 ± 1.13 | 15.9 ± 1.17 |
| SAGMEVKITVEREEDGTLRITITVRPDMTPEELAALLEEELGLEVRVVRDEETGERVLEIEIPLPEELESAG [r5_742_TrROS_Hall] | 10 ± 0.46 | 9.05 ± 0.301 | 11 ± 0.502 |
| SAGMEYLEVKVTIEPKLPEELREKLKGKKVTVTIIVPKEMSEEEKKKLLEELRDLGVKKVEIKSLEELKSAG [r5_60_TrROS_Hall] | 7.92 ± 0.46 | 8.06 ± 0.322 | 6.9 ± 0.356 |
| SAGMGEAELAAARAANPDRPLVPVETYEIPLPPDVSLEEVEKELREKYPPGKVKVTADPATGTVTITISSAG [r5_694_JUSTAS] | 2.86 ± 0.628 | 4.05 ± 0.167 | -0.927 ± 0.586 |
| SAGMGLVGRTKDGKWIPAADLTEEQLKDMELDLGEPLPPVVVKVEVEWKLSPEDKLEVKLKVEVFVEGSAGG [r19_232_TrMRF] | 9.06 ± 0.837 | 12 ± 0.293 | 4.27 ± 0.628 |
| SAGMGPNEVKPIEIEFEVYETGEGEPYLVGKAIAKLYVDPVEGTVRLEIKDPEKPEPFITFEFPVEEISAGG [r19_413_TrMRF] | 8.11 ± 0.272 | 9.3 ± 0.155 | 5.78 ± 0.163 |
| SAGMGVSTFPVEIVTKPDDITEEELKKRAIERLKKLFPGVKLKEVKFDIPVRELPGDEIVITMNITVNVSAG [r14_145_JUSTAS] | 5.56 ± 0.234 | 4.22 ± 0.146 | 6.57 ± 0.285 |
| SAGMIDYIEIKPEKLPNGKYKVTITIYDSSTGTTTTYEKEMTPEEAKELAEKIKESNPDKPVKFGNLESAGG [r19_317_JUSTAS] | 8.09 ± 0.837 | 7.46 ± 0.372 | 8.62 ± 0.389 |
| SAGMIEIKSEDGSTFRIEFDKETGEVKVEYDKNTGVVKVTLPDGKEVEIEIEGMSLEEVLKKLEELLKKSAG [r5_447_TrROS_Hall] | 8.12 ± 0.92 | 7.43 ± 0.544 | 8.41 ± 0.795 |
| SAGMIEKLIREAFPAGAKSIRIEVRRLPDGSLLVRIDIHFDDPEVRRALADRIEELLGLPIPDLRVSPDSAG [r5_542_TrMRF] | 11.7 ± 0.176 | 12.83 ± 0.117 | 9.45 ± 0.146 |
| SAGMIKITIITENGEEITIEIPENMSEEELKELAEKIAKEIAKKLNIPKVKIKKIKIEKIELTPEQIKKSAG [r5_377_TrROS_Hall] | 7.92 ± 1.51 | 8.23 ± 0.41 | 3.71 ± 0.322 |
| SAGMIVTVLSKEVDPATGSTTTYSVSTDPETGETFLYTTTTTGDTVTTTRTVFFPGTGTTSTSTTTTSASAG [r5_150_JUSTAS] | 11.4 ± 0.192 | 12.63 ± 0.0711 | 9.09 ± 0.234 |
| SAGMKEGEVEKVEVEVEITIEVYNENGEKVKTFKAKVKVEVVRNENGELYVKAEIEFEDGTKFEFVVKLSAG [r5_580_TrROS_Hall] | 15.9 ± 2.26 | 15.5 ± 0.377 | 12.4 ± 1.46 |
| SAGMKEKAIDALKEFFEEEGIKVKKIVIEEKPDGTYKITVYGENGKPIFEIEVPKDVKTSEELKKLIKKSAG [r5_352_TrMRF] | 15.1 ± 1.26 | 15.3 ± 0.502 | 11.3 ± 2.18 |
| SAGMKETLKVKIKVKLSEEQREKLKKALEELGATVEVDEETGEVTVEVSAEQVEALKKIPGVEEIEVESAGG [r19_212_TrROS_Hall] | 11.6 ± 0.586 | 10.9 ± 1 | 13.5 ± 0.753 |
| SAGMKIEEKDGYLVITFKTKEEAEEAAKKLKELFPDAEIVEIKVEKDENGNETVTIVIKLKNLSPEALKSAG [r5_857_TrROS_Hall] | 7.74 ± 0.962 | 8.55 ± 0.502 | 6.38 ± 0.322 |
| SAGMKIEIEIVKVEVKEVNGKKVIKVEIKVKVSAEELGLSEEELKEKLEEEVEELARELAEKLNVEVVPSAG [r5_333_TrROS_Hall] | 9.23 ± 2.13 | 5.71 ± 0.418 | 12.1 ± 1.51 |
| SAGMKIENAEITEIKVTVNEDGTVTVEMTVRLKNGYVVKVTMTFKNGKLEIKPEKVEVYKVKLPEEELSAGG [r19_84_TrROS_Hall] | 8.74 ± 1.72 | 9.56 ± 0.92 | 7.04 ± 0.41 |
| SAGMKIEPTKDYVLITVNGPEKALETIKKLKELIPNPEILDIKPHPHPNGENPWTIIIPTKNIPPEVLFSAG [r5_857_TrMRF] | 2.84 ± 0.628 | 2.17 ± 0.586 | 2.74 ± 0.176 |
| SAGMKIETIPEVDYVVIEIDAKSLEEAIETLKYLTEKLGLKKVIAVADPTSNKVIAIAEVGNPEALEKLSAG [r5_598_TrMRF] | 8.19 ± 0.418 | 6.51 ± 0.238 | 9.75 ± 0.293 |

| Sequence | folding stability dG unfold [1] [kJ/mol] | folding stability dG unfold [2] [kJ/mol] | folding stability dG unfold [3] [kJ/mol] |
| --- | --- | --- | --- |
| SAGMKIEVKKKKDGKLEVEIEVKTKDGRTIRVKIYYDKKTKKFYIVEIEAESEEEKKKAEELLKKLLKSSAG [r5_266_TrROS_Hall] | 14.3 ± 0.502 | 15.1 ± 0.188 | 11.8 ± 0.586 |
| SAGMKIKIKLENGEEIEIDKENPVIKIKNKETGEEVELVFDPENEDEIYIFNKKTKKLIAKFKITEIEPSAG [r5_761_TrROS_Hall] | 11 ± 1.42 | 13.4 ± 0.351 | 7.83 ± 0.385 |
| SAGMKIKVLLVVKADPEELEKLEEILEKIKEESDIKKIEPLAYFPNTGIAVVLVEADPEAFEKILEAAGSAG [r5_193_TrMRF] | 9.59 ± 0.397 | 10.8 ± 0.126 | 7.44 ± 0.134 |
| SAGMKIVVTLPDGWTATSDPSTGLITITDPKTGEPLLGKIPSSEPNKVTLYDPNNGKPLRELDIDEVEGSAG [r5_761_JUSTAS] | 2.43 ± 0.222 | 3.13 ± 0.0962 | 1.2 ± 0.109 |
| SAGMKKGDKFTVEFDLDPETRAEVEALLAAPGFAAEFDPSTGRLTLTLPSEIIDEVKKFPHIKKITKISAGG [r19_212_JUSTAS] | 7.02 ± 0.347 | 7.49 ± 0.184 | 4.38 ± 0.285 |
| SAGMKKKLYSGEIKEIEEALEKGLSLEEIEEIFSKGANGSLELEEENKKIYIFALEDKKAFLLVEYNPESAG [r5_343_TrMRF] | 4.59 ± 1.09 | 6.11 ± 0.795 | 1.84 ± 0.586 |
| SAGMKPGETITIENLPEGAIIYNKNGEKVEKVKEVKVTVEDGKITIEVKLEDGSTKTFTVPLEDLKIVPSAG [r5_850_TrROS_Hall] | 9.68 ± 0.586 | 12.8 ± 0.243 | 6.74 ± 0.502 |
| SAGMKVIIGKNKIYVLVKLPNGEKKLFEIDIENIEKIKKIEIDIGKGYAKIGSKDNIPIYTKIKKVYNVSAG [r5_388_TrMRF] | 10.9 ± 0.586 | 11.8 ± 0.46 | 9.21 ± 0.243 |
| SAGMKVIKVKGEEELEKALREEAEKKGLSEEEMKEFIEEAKKRTKIEKEGDEYYVTIEPEGKPVPGNKLSAG [r5_717_JUSTAS] | 1.98 ± 1.55 | -3.68 ± 2.18 | 4.33 ± 0.368 |
| SAGMKVLKFKSKEELLEAIDKSPEPVLVINKKTGKKEVLSKEELKKKLKPGDEIEIVLLKDLSPEELKKSAG [r5_677_TrROS_Hall] | 5.87 ± 0.586 | 7.43 ± 0.586 | 4.39 ± 0.406 |
| SAGMKYRIVIENENGEKIEFEKLEDGTIKMTIEKDGKKEEITIKVPPGMTIEELLKKFPNAKIVKIEKVSAG [r5_259_TrROS_Hall] | 13.5 ± 0.402 | 14.4 ± 0.272 | 11.6 ± 0.289 |
| SAGMLGEEAIKDVKLELKEAPENEELVFEDTFPVGDKIARIRIVLKLPKNGGYEIKDIPIEVMAPEEAESAG [r5_96_TrMRF] | < -4.18 | -0.742 ± 1.76 | -1.96 ± 1.13 |
| SAGMLPPEETVTLTLTFPASSPLSLEEILARTPDVEVLSLKREALPDDTVRLTITVRPDHVARVRAALASAG [r5_554_JUSTAS] | 18.1 ± 0.377 | 19.4 ± 0.251 | 14.1 ± 0.226 |
| SAGMMKRIVVTARFPADEMTLDEFVELILAKLPGVKPVRVEILSVRPRPDGSYEVTVLLLVEAPPDVDASAG [r5_682_TrMRF] | 17.7 ± 0.201 | 17.64 ± 0.134 | 18.3 ± 0.297 |
| SAGMMPLSHPEAREKAIEFAKKGYLVYVIEFENGESQVIVLESEEEIEELIKELPKPIKKIYVIPPLPESAG [r5_481_TrMRF] | 11.7 ± 0.372 | 12.78 ± 0.0711 | 8.84 ± 0.226 |
| SAGMMVVVELTVGFEPDEIEPEEIREAIEEHAAEVEIDPNPETDILPIRVIAEPGKIEAIVDALKEAGGSAG [r5_378_TrMRF] | 2.81 ± 0.92 | 0.279 ± 0.795 | 4.54 ± 0.289 |
| SAGMNKIYRLNEPVKNITFSSSELENLFKDPNIDRIAVFHPDKPAIIPFPDGKISGEFPPNITIVLFGSAGG [r19_152_TrMRF] | 1.61 ± 0.837 | -0.307 ± 2.09 | 2.76 ± 0.628 |
| SAGMNPNNPNVKTTTVTYTFPLPATESVEEAVERLKAEAEAAGKPIKTVEVTVERTPEDTVVIKATFVSSAG [r5_65_JUSTAS] | 6.65 ± 0.389 | 7.17 ± 0.238 | 5.59 ± 0.301 |
| SAGMPEPRVFEIPNEGSESDLRDAVRELAEELRPSGREVRLVVEVGGRPREYRLEEVDRFPPDFRVVLGSAG [r5_626_TrMRF] | 0.524 ± 0.502 | 1.36 ± 0.669 | -1.52 ± 1.05 |
| SAGMPGKVVTVTVPVPPELTRLTVTATAPDGSSSTFTLPPGVATTVTFTSPSSSDLSVTVTFPDGSTTGSAG [r5_664_JUSTAS] | 4.46 ± 0.209 | 4.86 ± 0.218 | 3.55 ± 0.0711 |
| SAGMPIKAKVLIFDPVNPVPKEFEFDVEDLDELVEKIREELGVEVVVDPESGVVVVDTPDGSLIVIEFDSAG [r5_937_TrMRF] | 12.6 ± 0.18 | 12.3 ± 0.322 | 12.9 ± 0.389 |
